Tested on: Escherichia coli TOP10
Assay: shrunken log2 fold change of peptide-encoding DNA abundance (4.5 h post-induction vs induction); higher = less antimicrobial activity (less host growth inhibition)
Conditions: time post-induction: 4.5 h; library: site-saturation at positions 5, 18, 19, 20
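Note: peptides expressed intracellularly from a pBAD plasmid library in pooled LB shake-flask culture, induced with 0.3% L-arabinose, DNA abundance read by NGS, three biological replicates, DESeq2 with apeglm shrinkage.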

Row | Sequence | shrunken log2 fold change
1 | RRIRNRPPRLPRPRPRPNDDPRP | 0.0813
2 | RRIRPRPPRLPRPRPRPNTDPRP | -0.374
3 | RRIRPRPPRLPRPRPRPYCDPRP | -0.907
4 | RRIRTRPPRLPRPRPRPCDGPRP | 0.134
5 | RRIRKRPPRLPRPRPRPTVGPRP | 0.197
6 | RRIRWRPPRLPRPRPRPHPHPRP | -0.0616
7 | RRIRTRPPRLPRPRPRPWPCPRP | -0.0128
8 | RRIRSRPPRLPRPRPRPWVPPRP | 0.177
9 | RRIRWRPPRLPRPRPRPFTSPRP | -0.0735
10 | RRIRRRPPRLPRPRPRPKSYPRP | 0.171
11 | RRIRMRPPRLPRPRPRPIILPRP | -0.0572
12 | RRIRKRPPRLPRPRPRPFPSPRP | 0.175
13 | RRIRIRPPRLPRPRPRPRAMPRP | -0.0601
14 | RRIRHRPPRLPRPRPRPEQRPRP | 0.229
15 | RRIRTRPPRLPRPRPRPKCFPRP | -0.384
16 | RRIRTRPPRLPRPRPRPYMHPRP | -0.685
17 | RRIRKRPPRLPRPRPRPLHYPRP | -0.00227
18 | RRIRHRPPRLPRPRPRPSNVPRP | -0.00144
19 | RRIRKRPPRLPRPRPRPEEGPRP | 0.0325
20 | RRIRDRPPRLPRPRPRPETHPRP | 0.739
21 | RRIRMRPPRLPRPRPRPIWHPRP | -0.0798
22 | RRIRGRPPRLPRPRPRPAQLPRP | 0.435

Row | Sequence | shrunken log2 fold change
23 | RRIRWRPPRLPRPRPRPFCEPRP | 0.376
24 | RRIRKRPPRLPRPRPRPSQHPRP | 0.109
25 | RRIRSRPPRLPRPRPRPWMSPRP | 0.132
26 | RRIRMRPPRLPRPRPRPNMRPRP | 1.6
27 | RRIRPRPPRLPRPRPRPPQGPRP | 0.686
28 | RRIRERPPRLPRPRPRPIVAPRP | 0.33
29 | RRIRGRPPRLPRPRPRPNQLPRP | 0.0782
30 | RRIRVRPPRLPRPRPRPVRHPRP | 0.0933
31 | RRIRRRPPRLPRPRPRPEKSPRP | 0.0868
32 | RRIRMRPPRLPRPRPRPQMDPRP | 0.224
33 | RRIRMRPPRLPRPRPRPGPCPRP | 0.915
34 | RRIRPRPPRLPRPRPRPDQVPRP | 0.0258
35 | RRIRHRPPRLPRPRPRPAHIPRP | -0.0784
36 | RRIRSRPPRLPRPRPRPRWMPRP | -0.206
37 | RRIRSRPPRLPRPRPRPNNSPRP | -0.724
38 | RRIRIRPPRLPRPRPRPMNFPRP | -0.0453
39 | RRIRRRPPRLPRPRPRPYTEPRP | -0.452
40 | RRIRVRPPRLPRPRPRPYARPRP | -0.243
41 | RRIRWRPPRLPRPRPRPYTAPRP | -0.611
42 | RRIRMRPPRLPRPRPRPIYAPRP | 1.86
43 | RRIRGRPPRLPRPRPRPFVFPRP | 0.608
44 | RRIRNRPPRLPRPRPRPAANPRP | 0.487

Row | Sequence | shrunken log2 fold change
45 | RRIRERPPRLPRPRPRPDNKPRP | -0.75
46 | RRIRARPPRLPRPRPRPVYPPRP | 0.0412
47 | RRIRLRPPRLPRPRPRPSWKPRP | 0.132
48 | RRIRRRPPRLPRPRPRPLCDPRP | 0.422
49 | RRIRARPPRLPRPRPRPDNGPRP | -0.19
50 | RRIRCRPPRLPRPRPRPTFSPRP | -0.187
51 | RRIRFRPPRLPRPRPRPYREPRP | -0.468
52 | RRIRWRPPRLPRPRPRPVFNPRP | -0.259
53 | RRIRRRPPRLPRPRPRPVTTPRP | 0.48
54 | RRIRDRPPRLPRPRPRPSCDPRP | -0.0948
55 | RRIRNRPPRLPRPRPRPCDAPRP | -0.195
56 | RRIRNRPPRLPRPRPRPLMMPRP | -0.193
57 | RRIRDRPPRLPRPRPRPMLRPRP | 0.0179
58 | RRIRRRPPRLPRPRPRPPSPPRP | 0.875
59 | RRIRVRPPRLPRPRPRPVQQPRP | -0.246
60 | RRIRPRPPRLPRPRPRPHFQPRP | 0.0551
61 | RRIRTRPPRLPRPRPRPQTSPRP | 0.413
62 | RRIRRRPPRLPRPRPRPKEAPRP | 0.0205
63 | RRIRERPPRLPRPRPRPDPTPRP | -0.0306
64 | RRIRTRPPRLPRPRPRPFIQPRP | -0.312
65 | RRIRPRPPRLPRPRPRPFFLPRP | -0.041
66 | RRIRNRPPRLPRPRPRPECCPRP | 0.517

Row | Sequence | shrunken log2 fold change
67 | RRIRARPPRLPRPRPRPKHNPRP | 0.114
68 | RRIRWRPPRLPRPRPRPEGWPRP | 1.39
69 | RRIRVRPPRLPRPRPRPAIKPRP | -0.202
70 | RRIRCRPPRLPRPRPRPDVGPRP | -0.0874
71 | RRIRKRPPRLPRPRPRPNDRPRP | -0.0503
72 | RRIRLRPPRLPRPRPRPRIKPRP | -0.168
73 | RRIRVRPPRLPRPRPRPWCYPRP | -0.366
74 | RRIRVRPPRLPRPRPRPSPPPRP | -0.0761
75 | RRIRCRPPRLPRPRPRPGWYPRP | -0.244
76 | RRIRQRPPRLPRPRPRPKHPPRP | -0.0928
77 | RRIRPRPPRLPRPRPRPLYCPRP | -0.548
78 | RRIRMRPPRLPRPRPRPRKMPRP | 0.356
79 | RRIRCRPPRLPRPRPRPTIKPRP | -0.364
80 | RRIRPRPPRLPRPRPRPCYWPRP | -0.294
81 | RRIRIRPPRLPRPRPRPNFIPRP | -0.327
82 | RRIRNRPPRLPRPRPRPWVSPRP | 0.069
83 | RRIRQRPPRLPRPRPRPSCDPRP | 0.0694
84 | RRIRERPPRLPRPRPRPYYVPRP | -0.559
85 | RRIRWRPPRLPRPRPRPEDAPRP | 0.00499
86 | RRIRRRPPRLPRPRPRPVAFPRP | 0.383
87 | RRIRCRPPRLPRPRPRPYGIPRP | -0.128
88 | RRIRGRPPRLPRPRPRPYWHPRP | -0.627

Row | Sequence | shrunken log2 fold change
89 | RRIRFRPPRLPRPRPRPKLMPRP | 0.195
90 | RRIRWRPPRLPRPRPRPSYFPRP | 1.15
91 | RRIRHRPPRLPRPRPRPYPAPRP | -0.425
92 | RRIRKRPPRLPRPRPRPYWQPRP | -0.0316
93 | RRIRMRPPRLPRPRPRPQMIPRP | -0.0999
94 | RRIRVRPPRLPRPRPRPENPPRP | 0.0444
95 | RRIRYRPPRLPRPRPRPRMSPRP | 0.256
96 | RRIRARPPRLPRPRPRPTHGPRP | 0.644
97 | RRIRERPPRLPRPRPRPASGPRP | 0.133
98 | RRIRDRPPRLPRPRPRPHYHPRP | -0.806
99 | RRIRERPPRLPRPRPRPTFIPRP | -0.291
100 | RRIRCRPPRLPRPRPRPKHLPRP | -0.122
101 | RRIRPRPPRLPRPRPRPWIQPRP | 0.0178
102 | RRIRTRPPRLPRPRPRPIAAPRP | 0.894
103 | RRIRCRPPRLPRPRPRPWPEPRP | -0.15
104 | RRIRMRPPRLPRPRPRPQQIPRP | 0.0607
105 | RRIRQRPPRLPRPRPRPAGMPRP | -0.148
106 | RRIRKRPPRLPRPRPRPDYWPRP | 0.0865
107 | RRIRWRPPRLPRPRPRPYFMPRP | -0.834
108 | RRIRCRPPRLPRPRPRPGPVPRP | 0.239
109 | RRIRPRPPRLPRPRPRPANVPRP | -0.122
